Laboratory results from patent US11827701B2, “IL-6 binding molecules” (argenx BV, priority 2012, dated 2023).

What was measured:
Type in all cases: binding
[1] = target: T1, eukaryotically produced human IL-6 (Homo sapiens, UniProt P05231); test: Surface plasmon resonance (Biacore), eukaryotically produced human IL-6 coated on CM5 chip; settings: for KA / ka / kd: euk, periplasmic fractions
T1 construct: purchased Humanzyme HZ-1044; host or cells: Human Embryonic kidney cells
Experimental: (§1) The binding kinetics of IL-6-specific Fabs that were able to cross-compete with the B-E8 antibody was assessed using surface plasmon resonance (Biacore). Specifically, biotinylated (prokaryotic) IL-6 was captured on a streptavidin biacore sensor chip (CM5-SA) and different concentrations of purified Fabs were injected during 3 minutes following by a 5 minute wash with buffer. From the washing phase the off-rate (kd) was determined, while from the injection phase the on-rate (ka) was calculated using the concentration and off-rate as parameters. […] The binding kinetics of antagonistic purified Fabs (Table 3) and periplasmic fractions of Fab-expressing bacteria (Table 4) were also evaluated by surface plasmon resonance (Biacore) using both bacterially and eukaryotically produced human IL-6 directly coated on a CM5 chip. The Fabs tested had off-rates between 6×10^−4 and 2×10^−5 s^−1.
(§2) VL chain shuffling was used to improve the affinity of the Fabs 17F10, 18C7, 18C9, 18C11, 20A4, 29B11, 16D2 and 28A6. In this method, the heavy chain of these clones (as a VHCH1 fragment) was reintroduced into the primary phagemid-light chain library (see Example 1). Affinity selections were performed to select for chain shuffled Fabs with an improved affinity for IL-6. The binding kinetics of chain shuffled Fabs were evaluated by surface plasmon resonance (Biacore) using both bacterially and eukaryotically produced human IL-6, and cynomolgus monkey IL-6 (Tables 5-7). The VH and VL amino acid sequences of exemplary IL-6-specific Fabs selected by the VL chain shuffling method are set forth in Table 14 below.
(§3) VH chain shuffling was also used to improve the affinity of the Fab 24D10. In this method, the light chain of 24D10 was reintroduced into the primary phagemid-heavy chain library (see Example 1) and selected using an off-rate assay. In this type of selection, the phage were allowed to bind to antigen on a substrate for 1.5 to 2 hours. At round 2, after 15 washes with PBS-Tween, an additional wash was performed with the presence of excess soluble IL-6. […] This procedure avoids re-binding of such phage to the coated target. […] The binding kinetics of chain shuffled Fabs and the benchmark antibodies, BE8 and GL18, were evaluated by surface plasmon resonance (Biacore) using both bacterially and eukaryotically produced human IL-6 (Tables 8 and 9). The VH and VL amino acid sequences of exemplary IL-6-specific Fabs selected by the VH chain shuffling method are set forth in Table 14 below. […]

[2] = target: T2, bacterially produced human IL-6 (Homo sapiens, UniProt P05231); test: Surface plasmon resonance (Biacore), bacterially produced human IL-6 coated on CM5 chip; settings: for KA / ka / kd: bact, periplasmic fractions
T2 construct: His
T2 sequence (P05231 30-212): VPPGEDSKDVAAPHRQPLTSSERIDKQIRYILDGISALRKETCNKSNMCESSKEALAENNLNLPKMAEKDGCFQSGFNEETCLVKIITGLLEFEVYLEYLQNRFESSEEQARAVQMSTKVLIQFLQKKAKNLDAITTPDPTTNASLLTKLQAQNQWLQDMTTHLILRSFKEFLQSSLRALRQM
Experimental: as §1, §2, §3

cynomolgus monkey IL-6 = target: T3, cynomolgus monkey IL-6 (Macaca fascicularis, UniProt P79341); test: Surface plasmon resonance (Biacore), cynomolgus monkey IL-6; settings: for KA / ka / kd: cy/cyno, periplasmic fractions
T3 construct: His
T3 sequence (P79341 28-212): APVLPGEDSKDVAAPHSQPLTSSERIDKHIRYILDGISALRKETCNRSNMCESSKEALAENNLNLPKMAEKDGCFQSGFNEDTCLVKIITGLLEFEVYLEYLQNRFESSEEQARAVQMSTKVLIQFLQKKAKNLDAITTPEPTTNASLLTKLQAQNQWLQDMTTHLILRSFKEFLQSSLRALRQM
Experimental: as §2

[3] = target: biotinylated (prokaryotic) IL-6 (Homo sapiens, UniProt P05231); test: Surface plasmon resonance (Biacore), biotinylated IL-6 captured on streptavidin sensor chip; settings: purified Fab
biotinylated (prokaryotic) IL-6, sequence (P05231 30-212): as the sequence (P05231 30-212) above
Experimental: as §1

T1 sequence (P05231 30-212): as above

Molecule | KA ([1]; 29B11 chain shuffled) | ka ([1]; 29B11 chain shuffled) | kd ([1]; 29B11 chain shuffled) | KA ([2]; 29B11 chain shuffled) | ka ([2]; 29B11 chain shuffled) | kd ([2]; 29B11 chain shuffled) | KA (cynomolgus monkey IL-6; 29B11 chain shuffled) | ka (cynomolgus monkey IL-6; 29B11 chain shuffled) | kd (cynomolgus monkey IL-6; 29B11 chain shuffled) | KA ([1]; 28A6 chain-shuffled) | ka ([1]; 28A6 chain-shuffled) | kd ([1]; 28A6 chain-shuffled) | KA ([2]; 28A6 chain-shuffled) | ka ([2]; 28A6 chain-shuffled) | kd ([2]; 28A6 chain-shuffled) | KA (cynomolgus monkey IL-6; 28A6 chain-shuffled) | ka (cynomolgus monkey IL-6; 28A6 chain-shuffled) | kd (cynomolgus monkey IL-6; 28A6 chain-shuffled) | further results
17F10: antagonistic IL-6-specific Fab clone from immunized llama (antibody, listed as Lama glama, V domains shown) VH: EVQLQESGPGLVKPSQTLSLTCTVSGGSIATSYYAWSWIRQPPGKGLEWMGVIDYDGDTYYKPSLKSRTSISRDTSKNQFSLQLSSVTPEDTAVYYCARAGLGDSYYLGTYYAMDYWGKGTLVTVSS VL: QAGLTQPPSVSGSPGKTVTISCAGTTSDVGTGNFVSWYQQLPGMAPKLLIYDVNKRASGIADRFSGSKSGNTASLTISGLQSEDEADYYCASYRSLNNVVFGGGTHLTVLG | – | – | – | – | – | – | – | – | – | – | – | – | – | – | – | – | – | – | Koff eukIL-6 ([1]; purified chain-shuffled Fabs): 0.00077 s⁻¹; Koff HIS-huIL-6 ([2]; purified chain-shuffled Fabs): 0.00088 s⁻¹; Koff HIS-cyIL-6 (cynomolgus monkey IL-6; purified chain-shuffled Fabs): 0.00078 s⁻¹
29B11: antagonistic IL-6-specific Fab clone from immunized llama (antibody, listed as Lama glama, V domains shown) VH: EVQLVESGGGLVQPGGSLRLSCAASGFTFSSYAMSWVRQAPGKGLEWVSRISSGGISTYYADSVKGRFTISRDNAKNTLYLQMNSLKPEDTAVYYCVRYAWGVQWAFDFWGQGTQVTVSS VL: QSVLTQPPSVSGSPGQTVTISCAGTSEDVGYGNYVSWYQQLPGMAPKLLIYDVNKRASGIADRFSGSKSGNTASLTISGLQSEDEADYYCASYRRTIDNIFGGGTHLTVLG | 1.83e+09 M⁻¹ | 187000 M⁻¹ s⁻¹ | 0.000102 s⁻¹ | 1.91e+09 M⁻¹ | 251000 M⁻¹ s⁻¹ | 0.000131 s⁻¹ | 1.51e+08 M⁻¹ | 113000 M⁻¹ s⁻¹ | 0.000746 s⁻¹ | – | – | – | – | – | – | – | – | – | KA [3]: 4.36e+07 M⁻¹; Rmax [3]: 23.3 RU; ka [3]: 130000 M⁻¹ s⁻¹; kd [3]: 0.00298 s⁻¹
47C2 (R4): 29B11 chain shuffled Fab, periplasmic fraction (antibody, listed as Lama glama, V domains shown) VH: EVQLVESGGGLVQPGGSLRLSCAASGFTFSSYAMSWVRQAPGKGLEWVSRISSGGISTYYADSVKGRFTISRDNAKNTLYLQMNSLKPEDTAVYYCVRYAWGVQWAFDFWGQGTQVTVSS VL: ALSYDLTQPPSVSGSPGKTVTISCAGTSSDVGYGNYVSWYQQLPGMAPKILIYDVNKRASGIADRFSGSKSGNTASLTISGLQSEDEADYYCASYRRGETIVFGGGTHLTVLG | 3.54e+09 M⁻¹ | 849000 M⁻¹ s⁻¹ | 0.00024 s⁻¹ | 3.56e+09 M⁻¹ | 1.12e+06 M⁻¹ s⁻¹ | 0.000315 s⁻¹ | 6.48e+08 M⁻¹ | 851000 M⁻¹ s⁻¹ | 0.00131 s⁻¹ | – | – | – | – | – | – | – | – | – | –
48C10: 29B11 chain shuffled Fab, periplasmic fraction (antibody, listed as Lama glama, V domains shown) VH: EVQLVESGGGLVQPGGSLRLSCAASGFTFSSYAMSWVRQAPGKGLEWVSRISSGGISTYYADSVKGRFTISRDNAKNTLYLQMNSLKPEDTAVYYCVRYAWGVQWAFDFWGQGTQVTVSS VL: AQSVLTQPPSVSGSPGQTVTISCAGTSEDVGYGNYVSWYQQLPGMAPKLLIYDVNKRASGIADRFSGSKSGNTASLTISGLQSEDEADYYCASYRRTIDNIFGGGTHLTVLG | – | – | – | 1.43e+09 M⁻¹ | 262000 M⁻¹ s⁻¹ | 0.000184 s⁻¹ | 4.1e+08 M⁻¹ | 180000 M⁻¹ s⁻¹ | 0.00044 s⁻¹ | – | – | – | – | – | – | – | – | – | –
55A11d: 28A6 chain-shuffled Fab, periplasmic fraction (antibody, V domains shown) VH: QVQLVESGGGLVQPGGSLRLSCAASGFTFSNYYMTWVRQAPGKGLEWVSSIYSFSGDTAYADSVKGRFTISRDNAKNTLYLQMNSLKSEDTAVYYCTRNLGGVVVTTNGYDYWGQGTQVTVSS VL: DIQMTQSPSSLPTSLGDSVTITCQASQSISDELSWYQQKPGQTPKLLIYGASRLQTGVPSRFSGRGSGTSFTLTISGLEAEDLATYYCLQGYSWPFMFGQGTKVELK | – | – | – | – | – | – | – | – | – | 1.59e+09 M⁻¹ | 101000 M⁻¹ s⁻¹ | 6.36e-05 s⁻¹ | 2.78e+09 M⁻¹ | 188000 M⁻¹ s⁻¹ | 6.76e-05 s⁻¹ | 1.77e+09 M⁻¹ | 144000 M⁻¹ s⁻¹ | 8.17e-05 s⁻¹ | –
48H1g2, R4: 28A6 chain-shuffled Fab, periplasmic fraction (antibody, V domains shown) VH: QVQLVESGGGLVQPGGSLRLSCAASGFTFSNYYMTWVRQAPGKGLEWVSSIYSFSGDTAYADSVKGRFTISRDNAKNTLYLQMNSLKSEDTAVYYCTRNLGGVVVTTNGYDYWGQGTQVTVSS VL: DVVMTQSPSSLPTSLGDSVTITCQASQSISDELSWYQQKPGQTPKLLIYGASKLQTGVPSRFSGSGSGTSFTLTISGLEAEDLATYYCLQGYSWPFMFGQGTKVELK | – | – | – | – | – | – | – | – | – | 1.56e+09 M⁻¹ | 106000 M⁻¹ s⁻¹ | 6.8e-05 s⁻¹ | 2.93e+09 M⁻¹ | 206000 M⁻¹ s⁻¹ | 7.04e-05 s⁻¹ | 1.18e+09 M⁻¹ | 112000 M⁻¹ s⁻¹ | 9.46e-05 s⁻¹ | –

Second part, led by results:

KA ([1]; 29B11 chain shuffled) | ka ([1]; 29B11 chain shuffled) | kd ([1]; 29B11 chain shuffled) | KA ([2]; 29B11 chain shuffled) | ka ([2]; 29B11 chain shuffled) | kd ([2]; 29B11 chain shuffled) | KA (cynomolgus monkey IL-6; 29B11 chain shuffled) | ka (cynomolgus monkey IL-6; 29B11 chain shuffled) | kd (cynomolgus monkey IL-6; 29B11 chain shuffled) | KA ([1]; 28A6 chain-shuffled) | ka ([1]; 28A6 chain-shuffled) | kd ([1]; 28A6 chain-shuffled) | KA ([2]; 28A6 chain-shuffled) | ka ([2]; 28A6 chain-shuffled) | kd ([2]; 28A6 chain-shuffled) | KA (cynomolgus monkey IL-6; 28A6 chain-shuffled) | ka (cynomolgus monkey IL-6; 28A6 chain-shuffled) | kd (cynomolgus monkey IL-6; 28A6 chain-shuffled) | Molecule | further results
5.55e+09 M⁻¹ | 440000 M⁻¹ s⁻¹ | 7.93e-05 s⁻¹ | 7.6e+09 M⁻¹ | 561000 M⁻¹ s⁻¹ | 7.38e-05 s⁻¹ | 1.25e+09 M⁻¹ | 475000 M⁻¹ s⁻¹ | 0.000381 s⁻¹ | – | – | – | – | – | – | – | – | – | 55C1a: 29B11 chain shuffled Fab, periplasmic fraction (antibody, V domains shown) VH: EVQLVESGGGLVQPGGSLRLSCAASGFTFSSYAMSWVRQAPGKGLEWVSRISSGGISTYYADSVKGRFTISRDNAKNTLYLQMNSLKPEDTAVYYCVRYAWGVQWAFDFWGQGTQVTVSS VL: ALNFMLTQPPSVSGSPGKTVTISCAGTSSDVGYGNYVSWYQQLPGTAPKLLIYNVNKRASGITDRFSGSKSGNTASLTISGLQSEDEADYYCASYRTGDNAAFGGGTKLTVLG | –
6.34e+09 M⁻¹ | 414000 M⁻¹ s⁻¹ | 6.53e-05 s⁻¹ | 7.28e+09 M⁻¹ | 489000 M⁻¹ s⁻¹ | 6.72e-05 s⁻¹ | 1.39e+09 M⁻¹ | 468000 M⁻¹ s⁻¹ | 0.000336 s⁻¹ | – | – | – | – | – | – | – | – | – | 55E2b: 29B11 chain shuffled Fab, periplasmic fraction (antibody, V domains shown) VH: EVQLVESGGGLVQPGGSLRLSCAASGFTFSSYAMSWVRQAPGKGLEWVSRISSGGISTYYADSVKGRFTISRDNAKNTLYLQMNSLKPEDTAVYYCVRYAWGVQWAFDFWGQGTQVTVSS VL: AQSVLTQPPSVSGSPGKTVTISCAGTSSDVGYGNYVSWYQQLPGMAPKLLIYDVNKRASGIADRFSGSKFANTASLTISGLQSEDEADYYCASYKRGDNAVFGGGTKLTVLG | –
– | – | – | – | – | – | – | – | – | 2.62e+09 M⁻¹ | 146000 M⁻¹ s⁻¹ | 5.59e-05 s⁻¹ | 3.18e+09 M⁻¹ | 193000 M⁻¹ s⁻¹ | 6.09e-05 s⁻¹ | 2.1e+09 M⁻¹ | 145000 M⁻¹ s⁻¹ | 6.88e-05 s⁻¹ | 55E10g1: 28A6 chain-shuffled Fab, periplasmic fraction (antibody, V domains shown) VH: QVQLVESGGGLVQPGGSLRLSCAASGFTFSNYYMTWVRQAPGKGLEWVSSIYSFSGDTAYADSVKGRFTISRDNAKNTLYLQMNSLKSEDTAVYYCTRNLGGVVVTTNGYDYWGQGTQVTVSS VL: DIQMTQSPSSLPTSLGDSVTITCQASQSISDELSWYQQKPGQTPKLLIYGASKLQTGVPSRFSGSGSGTSFTLTISGLEAEDLATYYCLQGYSWPFMFGQGTKVELK | –
– | – | – | – | – | – | – | – | – | 3.1e+09 M⁻¹ | 201000 M⁻¹ s⁻¹ | 6.47e-05 s⁻¹ | 3.29e+09 M⁻¹ | 228000 M⁻¹ s⁻¹ | 6.94e-05 s⁻¹ | 3.2e+09 M⁻¹ | 285000 M⁻¹ s⁻¹ | 8.9e-05 s⁻¹ | 55C11f: 28A6 chain-shuffled Fab, periplasmic fraction (antibody, V domains shown) VH: QVQLVESGGGLVQPGGSLRLSCAASGFTFSNYYMTWVRQAPGKGLEWVSSIYSFSGDTAYADSVKGRFTISRDNAKNTLYLQMNSLKSEDTAVYYCTRNLGGVVVTTNGYDYWGQGTQVTVSS VL: DIQLTQSPSSLSASLGDSVTITCQASQSISDELSWYQQKPGQTPKLLIYGASKLQTGVPSRFSGSGSGTSFTLTISGLEAEDLATYYCLQGYRWPFMFGQGTKVELK | –
